*1 amine or outer side, *2 acyl side, *3 side chain or, on linkers, in order; H or OH if unused. Bridges are numbered along the chain shown (N, C = ends). [ ]: non-standard residue; d: D form. The star is where a group is joined. DOTA = O=C(O)CN1CCN(CC(=O)O)CCN(CC(=O)*)CCN(CC(=O)O)CC1; N(2-mercaptoethyl)Gly = O=C(CN(CCS[*:3])[*:1])[*:2]; Glutaryl = O=C(CCCC(=O)[*:2])[*:1]; 4Amb = NCc1ccc(C(=O)O)cc1; Orn = NCCC[C@H](N)C(=O)O; Aoc = NCCCCCCCC(=O)O; CPT = camptothecin
B1: SEQ ID NO: 20 (peptide)
peptide: {DOTA}-F[dF]RCF[dW]KTF[N(2-mercaptoethyl)Gly]-NH2
modifications: disulfide 4-10
SMILES: C[C@@H](O)[C@@H]1NC(=O)[C@H](CCCCN)NC(=O)[C@@H](Cc2c[nH]c3ccccc23)NC(=O)[C@H](Cc2ccccc2)NC(=O)[C@@H](NC(=O)[C@H](CCCNC(=N)N)NC(=O)[C@@H](Cc2ccccc2)NC(=O)[C@H](Cc2ccccc2)NC(=O)CN2CCN(CC(=O)O)CCN(CC(=O)O)CCN(CC(=O)O)CC2)CSSCCN(CC(N)=O)C(=O)[C@H](Cc2ccccc2)NC1=O
B2: SEQ ID NO: 22 (peptide)
peptide: {DOTA}-[dF]EE[Orn]CF[dW]KTF[N(2-mercaptoethyl)Gly]-NH2
modifications: disulfide 5-11
SMILES: C[C@@H](O)[C@@H]1NC(=O)[C@H](CCCCN)NC(=O)[C@@H](Cc2c[nH]c3ccccc23)NC(=O)[C@H](Cc2ccccc2)NC(=O)[C@@H](NC(=O)[C@H](CCCN)NC(=O)[C@H](CCC(=O)O)NC(=O)[C@H](CCC(=O)O)NC(=O)[C@@H](Cc2ccccc2)NC(=O)CN2CCN(CC(=O)O)CCN(CC(=O)O)CCN(CC(=O)O)CC2)CSSCCN(CC(N)=O)C(=O)[C@H](Cc2ccccc2)NC1=O
B3: SEQ ID NO: 23 (peptide)
peptide: {DOTA}-[dF]E[Orn]CF[dW]KTF[N(2-mercaptoethyl)Gly]-NH2
modifications: disulfide 4-10
SMILES: C[C@@H](O)[C@@H]1NC(=O)[C@H](CCCCN)NC(=O)[C@@H](Cc2c[nH]c3ccccc23)NC(=O)[C@H](Cc2ccccc2)NC(=O)[C@@H](NC(=O)[C@H](CCCN)NC(=O)[C@H](CCC(=O)O)NC(=O)[C@@H](Cc2ccccc2)NC(=O)CN2CCN(CC(=O)O)CCN(CC(=O)O)CCN(CC(=O)O)CC2)CSSCCN(CC(N)=O)C(=O)[C@H](Cc2ccccc2)NC1=O
B4: SEQ ID NO: 25 (peptide)
peptide: {DOTA}-[dF]RCY[dW]KTF[N(2-mercaptoethyl)Gly]-NH2
modifications: disulfide 3-9
SMILES: C[C@@H](O)[C@@H]1NC(=O)[C@H](CCCCN)NC(=O)[C@@H](Cc2c[nH]c3ccccc23)NC(=O)[C@H](Cc2ccc(O)cc2)NC(=O)[C@@H](NC(=O)[C@H](CCCNC(=N)N)NC(=O)[C@@H](Cc2ccccc2)NC(=O)CN2CCN(CC(=O)O)CCN(CC(=O)O)CCN(CC(=O)O)CC2)CSSCCN(CC(N)=O)C(=O)[C@H](Cc2ccccc2)NC1=O
B5: SEQ ID NO: 26 (peptide)
peptide: H-XRCF[dW]KTY[N(2-mercaptoethyl)Gly]-NH2
modifications: disulfide 3-9; not fully specified (residue 1); printed as H-Phe1-Arg2-Cys3-Phe4-D-Trp5-Lys6-Thr7-Tyr8-NTEG9-NH2 (cyclo 3-9)

biological target: human cloned somatostatin receptor 1 (human) (UniProt P30872); test: 125I-Tyr11-SRIF-14 displacement
Sequence (P30872 whole entry): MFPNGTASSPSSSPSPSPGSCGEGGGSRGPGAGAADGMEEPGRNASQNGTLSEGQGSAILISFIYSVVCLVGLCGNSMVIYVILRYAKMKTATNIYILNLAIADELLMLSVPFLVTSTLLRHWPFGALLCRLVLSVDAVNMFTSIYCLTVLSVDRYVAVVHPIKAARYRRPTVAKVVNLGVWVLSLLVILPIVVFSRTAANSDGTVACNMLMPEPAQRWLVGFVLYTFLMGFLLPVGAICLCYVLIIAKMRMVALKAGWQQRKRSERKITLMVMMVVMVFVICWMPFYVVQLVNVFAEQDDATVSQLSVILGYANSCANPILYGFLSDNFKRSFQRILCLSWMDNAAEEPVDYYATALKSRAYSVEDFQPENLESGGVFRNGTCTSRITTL

% displacement at 1 nM	% displacement at 10 nM	Binder
23%	22%	{DOTA}-[dF][Orn]CF[dW]KTF[N(2-mercaptoethyl)Gly]-NH2 (disulfide 3-9) [SEQ ID NO: 21]
0%	4%	{DOTA-4Amb}-[dF]RCF[dW]KTF[N(2-mercaptoethyl)Gly]-NH2 (disulfide 3-9) [SEQ ID NO: 18]
8%	14%	B1
8%	7%	B2
4%	6%	B3
0%	3%	{CPT-Aoc}-[dF]RCF[dW]KTF[N(2-mercaptoethyl)Gly]-NH2 (disulfide 3-9) [SEQ ID NO: 27]
12%	23%	{Niraparib-Glutaryl}-[dF]RCF[dW]KTF[N(2-mercaptoethyl)Gly]-NH2 (disulfide 3-9) [SEQ ID NO: 28]
1%	15%	B4
0%	24%	B5

biological target: human cloned somatostatin receptor 5 (human) (UniProt P35346); test: 125I-Tyr11-SRIF-14 displacement
Sequence (P35346 whole entry): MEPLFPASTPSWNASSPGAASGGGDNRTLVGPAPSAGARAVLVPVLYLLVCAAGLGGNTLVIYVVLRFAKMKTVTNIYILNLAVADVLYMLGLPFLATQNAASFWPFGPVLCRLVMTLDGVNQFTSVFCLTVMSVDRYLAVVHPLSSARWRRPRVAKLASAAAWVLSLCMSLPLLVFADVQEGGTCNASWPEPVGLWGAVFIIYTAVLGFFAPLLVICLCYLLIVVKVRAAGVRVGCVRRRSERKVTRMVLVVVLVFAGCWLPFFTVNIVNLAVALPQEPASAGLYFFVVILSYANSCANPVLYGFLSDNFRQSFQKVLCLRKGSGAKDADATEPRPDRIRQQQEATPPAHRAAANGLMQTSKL

% displacement at 1 nM	% displacement at 10 nM	Binder
0%	0%	{DOTA}-[dF][Orn]CF[dW]KTF[N(2-mercaptoethyl)Gly]-NH2 (disulfide 3-9) [SEQ ID NO: 21]
0%	0%	{DOTA-4Amb}-[dF]RCF[dW]KTF[N(2-mercaptoethyl)Gly]-NH2 (disulfide 3-9) [SEQ ID NO: 18]
0%	0%	B1
0%	0%	B2
0%	0%	B3
0%	0%	{CPT-Aoc}-[dF]RCF[dW]KTF[N(2-mercaptoethyl)Gly]-NH2 (disulfide 3-9) [SEQ ID NO: 27]
0%	0%	{Niraparib-Glutaryl}-[dF]RCF[dW]KTF[N(2-mercaptoethyl)Gly]-NH2 (disulfide 3-9) [SEQ ID NO: 28]
6%	16%	B4
0%	1%	B5

biological target: human cloned somatostatin receptor 2 (human) (UniProt P30874); test: 125I-Tyr11-SRIF-14 displacement
Sequence (P30874 whole entry): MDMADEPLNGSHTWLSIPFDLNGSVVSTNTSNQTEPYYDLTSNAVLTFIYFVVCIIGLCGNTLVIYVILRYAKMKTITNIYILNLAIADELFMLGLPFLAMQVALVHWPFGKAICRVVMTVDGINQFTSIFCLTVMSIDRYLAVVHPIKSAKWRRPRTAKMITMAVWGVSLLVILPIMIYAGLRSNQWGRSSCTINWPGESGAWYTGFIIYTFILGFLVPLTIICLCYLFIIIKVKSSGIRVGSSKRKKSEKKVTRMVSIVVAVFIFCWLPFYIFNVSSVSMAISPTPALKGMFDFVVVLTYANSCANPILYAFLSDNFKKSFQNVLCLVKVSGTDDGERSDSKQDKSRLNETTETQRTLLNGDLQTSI

% displacement at 1 nM	% displacement at 10 nM	Binder
0%	2%	{DOTA}-[dF][Orn]CF[dW]KTF[N(2-mercaptoethyl)Gly]-NH2 (disulfide 3-9) [SEQ ID NO: 21]
0%	0%	{DOTA-4Amb}-[dF]RCF[dW]KTF[N(2-mercaptoethyl)Gly]-NH2 (disulfide 3-9) [SEQ ID NO: 18]
0%	2%	B1
0%	0%	B2
0%	0%	B3
0%	0%	{CPT-Aoc}-[dF]RCF[dW]KTF[N(2-mercaptoethyl)Gly]-NH2 (disulfide 3-9) [SEQ ID NO: 27]
0%	0%	{Niraparib-Glutaryl}-[dF]RCF[dW]KTF[N(2-mercaptoethyl)Gly]-NH2 (disulfide 3-9) [SEQ ID NO: 28]
0%	0%	B4
0%	0%	B5

biological target: human cloned somatostatin receptor 3 (human) (UniProt P32745); test: 125I-Tyr11-SRIF-14 displacement
Sequence (P32745 whole entry): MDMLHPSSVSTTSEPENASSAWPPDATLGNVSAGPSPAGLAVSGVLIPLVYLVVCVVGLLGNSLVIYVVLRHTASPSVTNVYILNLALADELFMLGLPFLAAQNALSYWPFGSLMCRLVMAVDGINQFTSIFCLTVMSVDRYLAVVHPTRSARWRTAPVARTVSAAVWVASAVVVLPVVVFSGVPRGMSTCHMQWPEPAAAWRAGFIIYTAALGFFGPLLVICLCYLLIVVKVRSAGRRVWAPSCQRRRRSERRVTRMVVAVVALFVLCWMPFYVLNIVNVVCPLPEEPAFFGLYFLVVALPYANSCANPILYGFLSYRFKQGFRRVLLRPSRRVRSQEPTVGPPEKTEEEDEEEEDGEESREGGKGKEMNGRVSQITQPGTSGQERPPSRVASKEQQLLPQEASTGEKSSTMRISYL

% displacement at 1 nM	% displacement at 10 nM	Binder
59%	93%	{DOTA}-[dF][Orn]CF[dW]KTF[N(2-mercaptoethyl)Gly]-NH2 (disulfide 3-9) [SEQ ID NO: 21]
49%	85%	{DOTA-4Amb}-[dF]RCF[dW]KTF[N(2-mercaptoethyl)Gly]-NH2 (disulfide 3-9) [SEQ ID NO: 18]
66%	95%	B1
0%	49%	B2
19%	56%	B3
12%	51%	{CPT-Aoc}-[dF]RCF[dW]KTF[N(2-mercaptoethyl)Gly]-NH2 (disulfide 3-9) [SEQ ID NO: 27]
28%	79%	{Niraparib-Glutaryl}-[dF]RCF[dW]KTF[N(2-mercaptoethyl)Gly]-NH2 (disulfide 3-9) [SEQ ID NO: 28]
65%	94%	B4
53%	86%	B5

biological target: human cloned somatostatin receptor 4 (human) (UniProt P31391); test: 125I-Tyr11-SRIF-14 displacement
Sequence (P31391 whole entry): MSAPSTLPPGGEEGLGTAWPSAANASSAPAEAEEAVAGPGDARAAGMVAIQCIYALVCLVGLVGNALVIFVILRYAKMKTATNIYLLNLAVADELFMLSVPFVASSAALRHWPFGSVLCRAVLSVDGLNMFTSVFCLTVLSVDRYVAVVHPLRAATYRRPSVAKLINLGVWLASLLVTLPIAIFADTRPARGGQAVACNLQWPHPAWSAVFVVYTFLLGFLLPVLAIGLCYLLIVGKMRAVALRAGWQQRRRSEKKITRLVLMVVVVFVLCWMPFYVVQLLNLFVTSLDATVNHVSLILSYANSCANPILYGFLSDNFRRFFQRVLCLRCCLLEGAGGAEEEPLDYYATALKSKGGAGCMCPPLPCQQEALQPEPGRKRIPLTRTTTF

% displacement at 1 nM	% displacement at 10 nM	Binder
9%	9%	{DOTA}-[dF][Orn]CF[dW]KTF[N(2-mercaptoethyl)Gly]-NH2 (disulfide 3-9) [SEQ ID NO: 21]
0%	8%	{DOTA-4Amb}-[dF]RCF[dW]KTF[N(2-mercaptoethyl)Gly]-NH2 (disulfide 3-9) [SEQ ID NO: 18]
0%	0%	B1
0%	3%	B2
0%	0%	B3
0%	0%	{CPT-Aoc}-[dF]RCF[dW]KTF[N(2-mercaptoethyl)Gly]-NH2 (disulfide 3-9) [SEQ ID NO: 27]
0%	0%	{Niraparib-Glutaryl}-[dF]RCF[dW]KTF[N(2-mercaptoethyl)Gly]-NH2 (disulfide 3-9) [SEQ ID NO: 28]
5%	8%	B4
0%	0%	B5

Reference: patent publication US20240165282A1, “CONFORMATIONAL CONSTRAINED SOMATOSTATIN RECEPTOR 3 PEPTIDE LIGANDS AND THEIR CONJUGATES AND USES THEREOF” (STARGET PHARMA LTD., priority 2021, published 2024)
